Laboratory results: the RNAGym collection of RNA variant scans (doi:10.7554/elife.90254)

B1: LINE1-full (parent)
chain: UACGUAGGUGGUUUUCCCCUGAUAGUGCUAAGGGGGCCUGGAAGUUUGGACUGGGCAGAGCUCAACACAGCGUGGCAAAGUGGCUGUGGCUAGACUGCCUCUCUGGAUUCCUCGUCACUCAGCAGGGCAUCUCUGAGAGAAAUGCC

Variants of: B1
Assay: self-cleavage, relative activity (ratio to wild type); higher = more cleavage; in vitro, sequencing; the parent is a self-cleaving ribozyme

Going from A65G G144U to A65G U73G, the self-cleavage rises from 0.06 to 0.08.

Going from A65G U81A to A65G U85A, the self-cleavage rises from 0.06 to 0.07.

First: A65G U85C
Second: A65G U87A
The self-cleavage of the first is higher: 0.13 for the first, 0.06 for the second.

Compared with A65G U87C, A65G U91C is lower in self-cleavage: 0.16 for the first, 0 for the second.

Compared with A65G U96C, A65G U100A is higher in self-cleavage: 0.08 for the first, 0.09 for the second.

Going from A65G U100C to A65G U104A, the self-cleavage falls from 0.06 to 0.05.

Compared with A65G U108A, A65G U108C is higher in self-cleavage: 0.04 for the first, 0.07 for the second.

Going from A65G U112C to A65G U115A, the self-cleavage falls from 0.1 to 0.04.

Compared with A65G U115C, A65G U119C is lower in self-cleavage: 0.05 for the first, 0.04 for the second.

Compared with A65G U119G, A65G U132C is higher in self-cleavage: 0 for the first, 0.07 for the second.

First: A65G U134A
Second: A65U A67G
The self-cleavage of the first is lower: 0.04 for the first, 0.15 for the second.

Going from A65U A69C to A65U A69G, the self-cleavage rises from 0.02 to 0.09.

Going from A65U A78C to A65U A79G, the self-cleavage falls from 0.27 to 0.21.

Going from A65U A92G to A65U A117G, the self-cleavage rises from 0.03 to 0.24.

First: A65U A121U
Second: A65U A124G
The self-cleavage of the first is higher: 0.24 for the first, 0.09 for the second.

Compared with A65U A124U, A65U A129G is higher in self-cleavage: 0.18 for the first, 0.38 for the second.

Compared with A65U A129U, A65U A138G is higher in self-cleavage: 0.18 for the first, 0.24 for the second.

Going from A65U A140G to A65U A140U, the self-cleavage falls from 0.26 to 0.1.

Compared with A65U A141G, A65U A142G is higher in self-cleavage: 0.18 for the first, 0.19 for the second.

Going from A65U C76U to A65U C146U, the self-cleavage falls from 0.22 to 0.16.

Compared with A65U G80A, A65U G82U is lower in self-cleavage: 0.28 for the first, 0.15 for the second.

Compared with A65U G88U, A65U G97A is higher in self-cleavage: 0.02 for the first, 0.04 for the second.

Going from A65U G114A to A65U G125A, the self-cleavage rises from 0.19 to 0.21.

Compared with A65U G127A, A65U G139A is lower in self-cleavage: 0.68 for the first, 0.15 for the second.

Compared with A65U U73A, A65U U81C is higher in self-cleavage: 0.18 for the first, 0.19 for the second.

First: A65U U91C
Second: A65U U91G
The self-cleavage of the first is higher: 0.08 for the first, 0.06 for the second.

First: A65U U96C
Second: A65U U100C
The self-cleavage of the first is lower: 0.02 for the first, 0.16 for the second.

First: A65U U104C
Second: A65U U108C
The self-cleavage of the first is higher: 0.52 for the first, 0.4 for the second.

Going from A65U U112A to A65U U115C, the self-cleavage rises from 0.14 to 0.26.

Compared with A65U U119A, C66A A136G is lower in self-cleavage: 0.21 for the first, 0.04 for the second.

Going from C66A A141G to C66G A117G, the self-cleavage rises from 0.04 to 0.08.

Going from C66U A69G to C66U A124G, the self-cleavage falls from 0.06 to 0.03.

Compared with C66U A136G, C66U A138U is lower in self-cleavage: 0.04 for the first, 0.03 for the second.

Compared with C66U A140G, C66U A141G is lower in self-cleavage: 0.04 for the first, 0.03 for the second.

Going from C66U A142G to C66U C111U, the self-cleavage falls from 0.05 to 0.04.

First: C66U G75A
Second: C66U U85C
The self-cleavage of the first is higher: 0.04 for the first, 0.02 for the second.

Compared with C66U U96A, C66U U100C is higher in self-cleavage: 0.02 for the first, 0.07 for the second.

Going from C66U U102A to C66U U109A, the self-cleavage falls from 0.06 to 0.03.

Going from C66U U130C to C66U U134C, the self-cleavage rises from 0.05 to 0.06.

Compared with C66U U143C, A67C is higher in self-cleavage: 0.03 for the first, 0.06 for the second.

Compared with A67C A78U, A67C A117C is lower in self-cleavage: 0.07 for the first, 0.03 for the second.

Work on A67C A136G yielded a self-cleavage of 0.12.
